Results reported in patent US20030171559A1 (Amgen, published 2003).
Substitutions are numbered along the chain they refer to.

T1: G-CSF receptor (natural G-CSF receptor, found on hematopoietic cells) (mouse (bone marrow cells of Balb C …, UniProt P40223 26-837))
T1 sequence (looked up): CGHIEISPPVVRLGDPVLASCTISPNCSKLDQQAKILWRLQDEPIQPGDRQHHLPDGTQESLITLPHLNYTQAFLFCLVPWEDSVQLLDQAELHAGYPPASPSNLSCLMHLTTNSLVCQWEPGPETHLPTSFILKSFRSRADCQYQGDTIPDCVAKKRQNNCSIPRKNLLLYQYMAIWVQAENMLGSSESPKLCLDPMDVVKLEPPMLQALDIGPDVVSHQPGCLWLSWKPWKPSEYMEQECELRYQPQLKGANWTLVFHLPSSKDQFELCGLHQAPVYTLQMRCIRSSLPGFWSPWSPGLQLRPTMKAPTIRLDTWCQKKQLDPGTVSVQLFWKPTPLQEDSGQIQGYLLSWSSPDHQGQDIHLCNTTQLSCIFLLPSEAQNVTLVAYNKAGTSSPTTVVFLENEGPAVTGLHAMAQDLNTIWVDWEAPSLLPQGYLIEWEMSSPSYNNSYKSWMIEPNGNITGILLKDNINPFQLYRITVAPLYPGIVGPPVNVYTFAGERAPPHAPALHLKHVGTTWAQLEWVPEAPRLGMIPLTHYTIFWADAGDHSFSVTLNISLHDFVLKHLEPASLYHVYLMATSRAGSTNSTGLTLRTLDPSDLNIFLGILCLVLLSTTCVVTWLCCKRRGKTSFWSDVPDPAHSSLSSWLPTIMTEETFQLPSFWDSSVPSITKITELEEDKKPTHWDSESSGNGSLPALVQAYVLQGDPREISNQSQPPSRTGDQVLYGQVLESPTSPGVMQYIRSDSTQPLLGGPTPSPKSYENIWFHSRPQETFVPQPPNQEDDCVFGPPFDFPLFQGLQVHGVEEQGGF

B1: G-CSF analog Gln26->Ala26 (ligand)
chain: MTPLGPASSLPQSFLLKCLEQVRKIAGDGAALQEKLCATYKLCHPEELVLLGHSLGIPWAPLSSCPSQALQLAGCLSQLHSGLFLYQGLLQALEGISPELGPTLDTLQLDVADFATTIWQQMEELGMAPALQPTQGAMPAFASAFQRRAGGVLVASHLQSFLEVSYRVLRHLAQP
B2: G-CSF analog Glu20->Ala20 (ligand)
chain: B1 chain with E20A, A26Q
B3: G-CSF analog Asp28->Ala28 (ligand)
chain: B1 chain with A26Q, D28A
B4: G-CSF analog Glu20->Ala20; Ser13->Gly13 (ligand)
chain: B1 chain with S13G, E20A, A26Q
B5: G-CSF analog Met127,138->Leu127,138 (ligand)
chain: B1 chain with A26Q, M127L, M138L
B6: G-CSF analog Ser13->Ala13 (ligand)
chain: B1 chain with S13A, A26Q
B7: G-CSF analog Lys17->Ala17 (ligand)
chain: B1 chain with K17A, A26Q
B8: G-CSF analog Gln121->Ala121 (ligand)
chain: B1 chain with A26Q, Q121A
B9: G-CSF analog Gln21->Ala21 (ligand)
chain: B1 chain with Q21A, A26Q
B10: G-CSF analog His44->Ala44 (ligand)
chain: B1 chain with A26Q, H44A
B11: G-CSF analog His53->Ala53 (ligand)
chain: B1 chain with A26Q, H53A
B12: G-CSF analog Gln174->Ala174 (ligand)
chain: B1 chain with A26Q, Q174A
B13: G-CSF analog Asp110->Ala110 (ligand)
chain: B1 chain with A26Q, D110A
B14: G-CSF analog Asp113->Ala113 (ligand)
chain: B1 chain with A26Q, D113A
B15: G-CSF analog Thr117->Ala117 (ligand)
chain: B1 chain with A26Q, T117A
B16: G-CSF analog Asp28->Ala28; Asp110->Ala110 (ligand)
chain: B1 chain with A26Q, D28A, D110A
B17: G-CSF analog Glu124->Ala124 (ligand)
chain: B1 chain with A26Q, E124A
B18: G-CSF analog Phe114->Val114, Thr117->Ala117 (ligand)
chain: B1 chain with A26Q, F114V, T117A
B19: G-CSF analog Arg170->Ala170 (ligand)
chain: B1 chain with A26Q, R170A
B20: G-CSF analog Arg167->Ala167 (ligand)
chain: B1 chain with A26Q, R167A
B21: G-CSF analog Lys41->Ala41 (ligand)
chain: B1 chain with A26Q, K41A
B22: G-CSF analog His44->Lys44 (ligand)
chain: B1 chain with A26Q, H44K
B23: G-CSF analog Glu47->Ala47 (ligand)
chain: B1 chain with A26Q, E47A
B24: G-CSF analog Arg23->Ala23 (ligand)
chain: B1 chain with R23A, A26Q
B25: G-CSF analog Lys24->Ala24 (ligand)
chain: B1 chain with K24A, A26Q

target: T1, G-CSF receptor (natural G-CSF receptor, …); experiment: cell-based or functional assay

First: B1
Second: B2
The “% Normal G-CSF Activity (3H-thymidine uptake, mouse bone marrow cells)” value (“% Normal G-CSF Activity” for short) of the first is higher: 51% for the first, 0% for the second.

Going from B3 to B4, the “% Normal G-CSF Activity” value falls from 147% to 0%.

First: B5
Second: B6
The “% Normal G-CSF Activity” value of the first is lower: 98% for the first, 110% for the second.

Going from B7 to B8, the “% Normal G-CSF Activity” value rises from 70% to 100%.

Compared with B9, B10 is higher in “% Normal G-CSF Activity” value: 9.6% for the first, 10.8% for the second.

Compared with B11, B12 is higher in “% Normal G-CSF Activity” value: 8.3% for the first, 100% for the second.

Compared with B13, B14 is lower in “% Normal G-CSF Activity” value: 29% for the first, 0% for the second.

First: B15
Second: B16
The “% Normal G-CSF Activity” value of the first is lower: 9.7% for the first, 20.6% for the second.

Compared with B17, B18 is lower in “% Normal G-CSF Activity” value: 75% for the first, 0% for the second.

Going from B19 to B20, the “% Normal G-CSF Activity” value rises from 100% to 110%.

Going from B21 to B22, the “% Normal G-CSF Activity” value falls from 81% to 70%.

Going from B23 to B24, the “% Normal G-CSF Activity” value rises from 0% to 31%.

With B25 the “% Normal G-CSF Activity” value was 0%.
